Data as given in the RNAGym collection of RNA variant scans (doi:10.1073/pnas.2313332121).

B1: TPR t1 (parent)
chain: GACCAAUCUGCCCUCAGAGCUCGAGAACAUCUUCGGAUGCAGAGGAGGCAGGCUUCGGUGGCGCGAUAGCGCCAACGUCCUCAACCUCCAAUGCAUCCCACCACAUGAUGAUGCCUGAAGAGCCUUGGUUUUUUG

Variants of: B1
Test: polymerase ribozyme fitness, log enrichment relative to wild type (log ratio); higher = more active; in vitro selection for triplet polymerase activity
Summary of the method: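 Each subunit of a heterodimeric triplet polymerase ribozyme was mutagenized into a library by PCR, transcribed, and subjected to one round of in vitro selection, run in triplicate. Libraries were annealed with a biotinylated primer, the partner subunit and triplets, incubated frozen at −7 °C, and extended constructs were gel-excised, captured on streptavidin beads and recovered by RT-PCR. Input and output libraries were sequenced on Illumina, keeping genotypes with ≥10 input reads and ≥1 read per output. Fitness is log base 2 of genotype enrichment divided by wild-type enrichment, from inverse-variance-weighted replicate averages.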

Point of comparison: GACCAAUCUGCCCUCAGAGCUCGAGAACAUCUUCGGAUGCAGAGGAGGCAGGCUUCGGUGGCGCGAUAGCUCCAACGUCCUCAACCUCCAAUGCAUCCCACCACAUGAUGAUGCGUGAAGAGCCUUGGUUUUUUG [G71U C115G], “polymerase ribozyme fitness (log ratio)” value -1.74. Against it:
- GACCAAUCUGCCCUCAGAGCUCGAGAACAUCUUCGGAUGCAGAGGAGGCAGGCUUCGGUGGCGCGAUAGCGACAACGUCCUCUACCUCCAAUGCAUCCCACCACAUGAUGAUGCCUGAAGAGCCUUGGUUUUUUG [C72A A83U] — higher, -0.322
- GACCAAUCUGCCCUCAGAGCUCGAGAACAUCUUCGGAUGCAGAGGAGGCAGGCUUCGGUGGCGCGAUAGCUCCAACGUCCUCAACCUCCAGUGCAUCCCACCACAUGAUGAUGCCUGAAGUGCCUUGGUUUUUUG [G71U A91G A121U] — higher, 0.367
- GACCAAUCUGCCCUCAGAGCUCGAGAACAUCUUCGGAUGCAGAGGAGGCAGGCUUCGGUGGCGCGAUAGCCCCAACGUCCGCAACCUCCAAUGCAUCCCACCACAUGAUGAUGCCUGAAGAGCCUUGGUUUUUUG [G71C U81G] — lower, -5.8
- GACCAAUCUGCCCUCAGAGCUCGAGAACAUCUUCGGAUGCAGAGGAGGCAGGCUUCGGUGGCGCGAUAGCGACAACGUCCUAAACCACCAAUGCAUCCCACCACAUGAUGAUGCCUGAAGAGCCUUGGUUUUUUG [C72A C82A U87A] — higher, -0.837
- GACCAAUCUGCCCUCAGAGCUCGAGAACAUCUUCGGAUGCAGAGGAGGCAGGCUUCGGUGGCGCGAUAGCUCCAACGUCCUCAACCUCCAAUGCAUCCCACCACAUGAUGAUGCCUGAAGAUCCUUGGUUUUUUG [G71U G122U] — higher, -0.542
- GACCAAUCUGCCCUCAGAGCUCGAGAACAUCUUCGGAUGCAGAGGAGGCAGGCUUCGGUGGCGCGAUAGCCCCAACGACCUCAACCUCCAAUGCAUCCCACCACAUGAUGAUGCCUGAAGAGCCUUGGUUUUUUG [G71C U78A] — higher, -0.14
- GACCAAUCUGCCCUCAGAGCUCGAGAACAUCUUCGGAUGCAGAGGAGGCAGGCUUCGGUGGCGCGAUAGCUCCAACGUCCACAACCUCCAAUGCAUCCCACCACAUGAUGAUGCCUGAAGAGACUUGGUUUUUUG [G71U U81A C123A] — higher, -1.04
- GACCAAUCUGCCCUCAGAGCUCGAGAACAUCUUCGGAUGCAGAGGAGGCAGGCUUCGGUGGCGCGAUAGCGACAACGUCCUCUACCUCCAAUGCAUCCCACCACAUGAUGAUGCCUGAAGAGGCUAGGUUUUUUG [C72A A83U C123G U126A] — higher, 0.126
- GACCAAUCUGCCCUCAGAGCUCGAGAACAUCUUCGGAUGCAGAGGAGGCAGGCUUCGGUGGCGCGAUAGCGAAAACGUCCUCAACCUCCAAUGCAUCCCACCACAUGAUGAUGCCUGAAGAGCCUUGGUUUUUUG [C72A C73A] — higher, -0.947
- GACCAAUCUGCCCUCAGAGCUCGAGAACAUCUUCGGAUGCAGAGGAGGCAGGCUUCGGUGGCGCGAUAGCUCCAACGUCCUCAACCUCCAAUGCAUCCCACCACAUGAUGACGCCUGAAGAGCCUUGGUUUUUUG [G71U U112C] — higher, 1.34
- GACCAAUCUGCCCUCAGAGCUCGAGAACAUCUUCGGAUGCAGAGGAGGCAGGCUUCGGUGGCGCGAUAGCUCCAACGUCCUCAACCCCCAAUGCAUCCCACCACAUGAUGAUGCCUGAAGAGCCUUGGUUUUUUG [G71U U87C] — higher, -0.194
- GACCAAUCUGCCCUCAGAGCUCGAGAACAUCUUCGGAUGCAGAGGAGGCAGGCUUCGGUGGCGCGAUAGCUCCAACGUCCUCAACCUCCAAUGCAUCCAACCACAUGAUGAUGCCUGAAGAGCCUUGGUUUUUUG [G71U C99A] — lower, -7.48
- GACCAAUCUGCCCUCAGAGCUCGAGAACAUCUUCGGAUGCAGAGGAGGCAGGCUUCGGUGGCGCGAUAGCGACAACGUCCUCAACCUCCAAUGCAUCCCACCACAUGAUGAUGCCUGAAGAGCCUUGGUUUUUUG [C72A] — higher, 0.126
- GACCAAUCUGCCCUCAGAGCUCGAGAACAUCUUCGGAUGCAGAGGAGGCAGGCUUCGGUGGCGCGAUAGCUCCAACGUCCUCAACCUCCAAUGCAUCCCACCACAUGAUUAUGCCUGAAGAGCCUUGGUUUUUUG [G71U G110U] — higher, -1.24
- GACCAAUCUGCCCUCAGAGCUCGAGAACAUCUUCGGAUGCAGAGGAGGCAGGCUUCGGUGGCGCGAUAGCUCCAACGUCCUCAACCUCCAAUGCAUCCCACGACAUGAUGAAGCCUGAAGAGCCUUUGUUUUUUG [G71U C102G U112A G127U] — lower, -5.37
- GACCAAUCUGCCCUCAGAGCUCGAGAACAUCUUCGGAUGCAGAGGAGGCAGGCUUCGGUGGCGCGAUAGCUCCAACGUGCUCAACCUCCAAUGCAUCCCACCACAUGAUGAUGCCUGAAGAGCCUUGGUUUUUUG [G71U C79G] — lower, -2.2
- GACCAAUCUGCCCUCAGAGCUCGAGAACAUCUUCGGAUGCAGAGGAGGCAGGCUUCGGUGGCGCGAUAGCUUCAACGUCCUCAACCUCCAAUGCAUCCCACCACAUGAUGAUGCCUGGAGAGCCUUGGUUUUUUG [G71U C72U A118G] — higher, -0.476
- GACCAAUCUGCCCUCAGAGCUCGAGAACAUCUUCGGAUGCAGAGGAGGCAGGCUUCGGUGGCGCGAUAGCCCCAACGUCCUCAACCUCCAAUGCAUCCCACCACAUGAUGAAGCCUGAAGAGCCUUGGUUUUUUG [G71C U112A] — higher, 0.348
- GACCAAUCUGCCCUCAGAGCUCGAGAACAUCUUCGGAUGCAGAGGAGGCAGGCUUCGGUGGCGCGAUAGCUCCAACGUCCUCAACCUCAAAUGCAUCCCACCACAUGAUGAUGCCUGAAGAGCCUUGGUUUUUUG [G71U C89A] — lower, -2.47
- GACCAAUCUGCCCUCAGAGCUCGAGAACAUCUUCGGAUGCAGAGGAGGCAGGCUUCGGUGGCGCGAUAGCGACAACGUCCUCAACCUCCAAUGCAUCCCACCUCAUGAUGAUGCCUGAAGAGCGUUGGUUCUUUG [C72A A103U C124G U131C] — lower, -2.63
- GACCAAUCUGCCCUCAGAGCUCGAGAACAUCUUCGGAUGCAGAGGAGGCAGGCUUCGGUGGCGCGAUAGCUCCAACGUCCUCAACCUCCAAUGCCUCCCAUCACAUGAUGAUGCCUGAAGAGCCUUAGUUUUUUG [G71U A95C C101U G127A] — lower, -3.11
- GACCAAUCUGCCCUCAGAGCUCGAGAACAUCUUCGGAUGCAGAGGAGGCAGGCUUCGGUGGCGCGAUAGCGACAACGUCUUCAACCUCCAAUGCAUCCCACCACAUGAUGAUGGCUGAAGAGCCUUGGUUUUUUG [C72A C80U C114G] — lower, -3.31
- GACCAAUCUGCCCUCAGAGCUCGAGAACAUCUUCGGAUGCAGAGGAGGCAGGCUUCGGUGGCGCGAUAGCUCCAACGUCCUCAACAUCCAAUGCAUCCCACCACAUGAUGAUGCCUGAAGAGCCUUGGUUUUUUG [G71U C86A] — lower, -2.02
- GACCAAUCUGCCCUCAGAGCUCGAGAACAUCUUCGGAUGCAGAGGAGGCAGGCUUCGGUGGCGCGAUAGCUCCAACGUCCUCAACCUCCAAUGCAUCCCAUCACAUGAUGAUGCCUGAAGAGCCUUGGUGUUUUG [G71U C101U U130G] — higher, -0.458
- GACCAAUCUGCCCUCAGAGCUCGAGAACAUCUUCGGAUGCAGAGGAGGCAGGCUUCGGUGGCGCGAUAGCUCCAACGUCCUGAACCUCCAAUGCAUCCCACCACAUGAUGAUGCCUAAAGAGCCUUGGUUUUUUG [G71U C82G G117A] — lower, -2.4
- GACCAAUCUGCCCUCAGAGCUCGAGAACAUCUUCGGAUGCAGAGGAGGCAGGCUUCGGUGGCGCGAUAGCUCAAACGUCCUCUACCUCCAAUGCAUCCCACCACAUGAUGAUGCCUGAAGAGCCUUGGUUUUUUG [G71U C73A A83U] — lower, -2.73
- GACCAAUCUGCCCUCAGAGCUCGAGAACAUCUUCGGAUGCAGAGGAGGCAGGCUUCGGUGGCGCGAUAGCUCCAACGUCCUCAAACUCCAAUGCAUCCCACCACAUGAUGAUGCCUGAAGAGCCUUGGUUUUUUG [G71U C85A] — within 0.2 log units, -1.72
- GACCAAUCUGCCCUCAGAGCUCGAGAACAUCUUCGGAUGCAGAGGAGGCAGGCUUCGGUGGCGCGAUAGCUCCAACGUCCUCAACCUCCAAUGCAACCCACCACAUGAUGAUGCCUGAAGAGCCUUGGUUUUUUG [G71U U96A] — higher, -1.24
- GACCAAUCUGCCCUCAGAGCUCGAGAACAUCUUCGGAUGCAGAGGAGGCAGGCUUCGGUGGCGCGAUAGCUCCAACGUCCUCAACCUCCAAUGCAUCCGACCACAUGAUGAUGCUUGAAGAGCCUUGGUUUUUUG [G71U C99G C115U] — lower, -7.86
- GACCAAUCUGCCCUCAGAGCUCGAGAACAUCUUCGGAUGCAGAGGAGGCAGGCUUCGGUGGCGCGAUAGCGACAACGUCCUCAACCUCCACUGCAUCCCACCACAUGAUGAUGCCUCAAGAGCCUUGGUUUUUUG [C72A A91C G117C] — lower, -4.28
- GACCAAUCUGCCCUCAGAGCUCGAGAACAUCUUCGGAUGCAGAGGAGGCAGGCUUCGGUGGCGCGAUAGCUCCAACGUCCUCAACCUCCAAUGCAUCCCACCACAUGAUGAUGCCUGAAGUGCCUUGGUUUUUUG [G71U A121U] — higher, 2.07
- GACCAAUCUGCCCUCAGAGCUCGAGAACAUCUUCGGAUGCAGAGGAGGCAGGCUUCGGUGGCGCGAUAGCUCCAACGUCCUCAACCUCCAAUGCAUCCCACCACAUGAUGAUGCCUGAAGAGCCUUGGUUAUGUG [G71U U131A U133G] — higher, -1.3
- GACCAAUCUGCCCUCAGAGCUCGAGAACAUCUUCGGAUGCAGAGGAGGCAGGCUUCGGUGGCGCGAUAGCUCCAUCGUCCUCAACCUCCAAUGCAUCUCACCACAUGAUGAUGCCUGAAGAGCCUUGGUUUUUUG [G71U A75U C98U] — lower, -2.02
- GACCAAUCUGCCCUCAGAGCUCGAGAACAUCUUCGGAUGCAGAGGAGGCAGGCUUCGGUGGCGCGAUAGCCCCAACGUCCUCAACCUCCAAUGCAGCCCACCACAUGAUGAUGCCUGAAUAGCCUUGGUUUUUUG [G71C U96G G120U] — higher, -1.37
- GACCAAUCUGCCCUCAGAGCUCGAGAACAUCUUCGGAUGCAGAGGAGGCAGGCUUCGGUGGCGCGAUAGCUCCAACGUCCUCAACCUCAAAUGCAUCCCACCACAUGAUGAUGCCUGAAGAGCCUUGGUUUAUUG [G71U C89A U132A] — lower, -2.07
- GACCAAUCUGCCCUCAGAGCUCGAGAACAUCUUCGGAUGCAGAGGAGGCAGGCUUCGGUGGCGCGAUAGCUCCAACGUCCUCAACCUCCAAUGCAUUCCACCACAUGAUGAAGCCUGAAGAGCCUUGGUUUUUUG [G71U C97U U112A] — higher, 1.1
- GACCAAUCUGCCCUCAGAGCUCGAGAACAUCUUCGGAUGCAGAGGAGGCAGGCUUCGGUGGCGCGAUAGCUCCAACGUCCGCAACCUCCAAUGCAUCCCACCACAUGAUGUUGCCUGAAGAGCCUUGGUUUUUUG [G71U U81G A111U] — lower, -6.76
- GACCAAUCUGCCCUCAGAGCUCGAGAACAUCUUCGGAUGCAGAGGAGGCAGGCUUCGGUGGCGCGAUAGCUCCGACGUCCUCAACCUCCAAUGCAUCCCACCACAUGAUGAUGCCUGAAGAGCCUUGGUUUUUUG [G71U A74G] — lower, -5.51
- GACCAAUCUGCCCUCAGAGCUCGAGAACAUCUUCGGAUGCAGAGGAGGCAGGCUUCGGUGGCGCGAUAGCUCCAACGUCCUCAACCUCCAAUUCAUCCCACCACAUGAUGAUGCCUGAAGAGCCUUGGUUUUUUG [G71U G93U] — higher, -0.956
- GACCAAUCUGCCCUCAGAGCUCGAGAACAUCUUCGGAUGCAGAGGAGGCAGGCUUCGGUGGCGCGAUAGCGACAACGUCCUCAACCUCCAAUGCAUCCCACCACAUGAUGAUGCCUGUAGAGCCUUGGUUUUUUG [C72A A118U] — higher, 0.818
- GACCAAUCUGCCCUCAGAGCUCGAGAACAUCUUCGGAUGCAGAGGAGGCAGGCUUCGGUGGCGCGAUAGCUCCAACGUCCUCAACCUCCAAUGCAUCCCACCACAUGAUGAUGCCUGAAGAGCAUUGGUUUUUUG [G71U C124A] — higher, 2.05
